Values of other authors in patent publication US6552168B1, “Gamma-ketoacid tetrapeptides as inhibitors of caspase-3” (Merck Frosst Canada & Co., priority 1998, dated 2003).

Experiments:
caspase-1 = target: T1, caspase-1 (Homo sapiens, UniProt P29466)
T1 sequence (P29466 120-297 limits assumed): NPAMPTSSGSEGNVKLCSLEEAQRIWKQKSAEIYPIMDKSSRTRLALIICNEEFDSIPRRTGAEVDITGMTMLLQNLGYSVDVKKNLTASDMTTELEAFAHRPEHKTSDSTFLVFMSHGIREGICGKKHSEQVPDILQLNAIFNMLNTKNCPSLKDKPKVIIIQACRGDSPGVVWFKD
T1 sequence (P29466 317-404 limits assumed): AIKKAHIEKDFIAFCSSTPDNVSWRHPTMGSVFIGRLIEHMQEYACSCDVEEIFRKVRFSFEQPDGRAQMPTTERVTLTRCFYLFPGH

caspase-3 = target: T2, caspase-3 (Homo sapiens, UniProt P42574)
T2 sequence (P42574 29-175 limits assumed): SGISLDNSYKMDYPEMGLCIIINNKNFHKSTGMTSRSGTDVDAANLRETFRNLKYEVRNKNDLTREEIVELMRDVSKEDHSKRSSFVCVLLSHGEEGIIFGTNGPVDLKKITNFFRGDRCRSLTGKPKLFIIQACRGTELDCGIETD
T2 sequence (P42574 176-277 limits assumed): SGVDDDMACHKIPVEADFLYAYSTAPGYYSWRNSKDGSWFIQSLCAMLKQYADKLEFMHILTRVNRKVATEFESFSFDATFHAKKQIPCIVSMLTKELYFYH

## Ac-YVAD-CHO
caspase-1
  Ki: < 0.001 µM
caspase-1; slow-binding time-dependent inhibition
  kon caspase-1: 380000 M⁻¹ s⁻¹
caspase-3
  Ki: 12 µM
